Measurements reported in PMC8177754.

Substrate: Nc1nc2c(ncn2[C@@H]2O[C@@H]3COP(=O)(O)O[C@H]4[C@@H](O)[C@H](n5cnc6c(N)ncnc65)O[C@@H]4COP(=O)(O)O[C@H]3[C@H]2O)c(=O)[nH]1
Assay: purified protein
Assay type: biochemical, Shewanella oneidensis
Details: pH 8.0

B1: (Shewanella oneidensis MR-1) (protein)
chain: MNAFLPHDFKVYMDVRHALLAVATALDFVGVDDLHHGHRVAYMAYECASVLGWPDEKKQFAYFAGLIHDCGVSSSEEHLRLLKLMQPEDAHCHSKRGYEALLECPILDVFAPIVLYHHTPWLELQSHDLSVFERDIAALIFLADRTDFLRARYTHGCHEELITLHESMVAENLLAHCGTLFEPEMVNAMCQLVKKDGFWYNMDATHIELLGLEFKANHFYDKELDIGGVKQLARFLARIVDAKSPFTFHHSEKVALLAKLVAKDCGISDTDAELLYVAGLLHDVGKLKTPDLLLHKEGKLTKEEYSIVKRHTVDTEHTLHRFFPKSVIGEWASNHHERLDGSGYPFSKRQEQLDLPSRILAVVDVFQALTQKRPYRGSLSLSEIYDIMQPMVDKGQLDAGVYSILLADIDNFYHLSTQEFQT
Km: 119 ± 60 µM
